Data as given in patent US20180155451A1 (published 2018).

B1: GpH7-A5/GpH7-B3 variant E333_12R/GpL16-k0 (antibody, human IgG1, kappa)
heavy 1: not shown
heavy 2: not shown
light: DIVMTQSPLSLPVTPGEPASISCQASESLVHSNRNTYLHWYLQKPGQSPQLLIYKVSNRFSGVPDRFSGSGSGTDFTLKISRVEAEDVGVYYCSQNTHVPPTFGQGTKVEIERTVAAPSVFIFPPSDEQLKSGTASVVCLLNNFYPREAKVQWKVDNALQSGNSQESVTEQDSKDSTYSLSSTLTLSKADYEKHKVYACEVTHQGLSSPVTKSFNRGEC
notes: heterodimerized; also called He Ab E333_12R
B2: GpH7-A5/GpH7-B3 variant K334_06M/GpL16-k0 (antibody, human IgG1, kappa)
heavy 1: not shown
heavy 2: not shown
light: B1 light
notes: heterodimerized; also called He Ab K334_06M
B3: GpH7-A5/GpH7-B3 variant P271_06M/GpL16-k0 (antibody, human IgG1, kappa)
heavy 1: not shown
heavy 2: not shown
light: B1 light
notes: heterodimerized; also called He Ab P271_06M
B4: GpH7-A5/GpH7-B3 variant P238_03V/GpL16-k0 (antibody, human IgG1, kappa)
heavy 1: not shown
heavy 2: not shown
light: B1 light
notes: heterodimerized; also called He Ab P238_03V
B5: GpH7-A5/GpH7-B3 variant P271_13S/GpL16-k0 (antibody, human IgG1, kappa)
heavy 1: not shown
heavy 2: not shown
light: B1 light
notes: heterodimerized; also called He Ab P271_13S
B6: GpH7-A5/GpH7-B3 variant P238_04F/GpL16-k0 (antibody, human IgG1, kappa)
heavy 1: not shown
heavy 2: not shown
light: B1 light
notes: heterodimerized; also called He Ab P238_04F
B7: GpH7-A5/GpH7-B3 variant G236_20W/GpL16-k0 (antibody, human IgG1, kappa)
heavy 1: not shown
heavy 2: not shown
light: B1 light
notes: heterodimerized; also called He Ab G236_20W; GpH7-A5/GpH7-B3-03-20W/GpL16-k0
B8: GpH7-A5/GpH7-B3 variant L328_03V/GpL16-k0 (antibody, human IgG1, kappa)
heavy 1: not shown
heavy 2: not shown
light: B1 light
notes: heterodimerized; also called He Ab L328_03V
B9: GpH7-A5/GpH7-B3 variant L234_15Y/GpL16-k0 (antibody, human IgG1, kappa)
heavy 1: not shown
heavy 2: not shown
light: B1 light
notes: heterodimerized; also called He Ab L234_15Y; GpH7-A5/GpH7-B3-01-15Y/GpL16-k0
B10: GpH7-A5/GpH7-B3 variant K334_10E/GpL16-k0 (antibody, human IgG1, kappa)
heavy 1: not shown
heavy 2: not shown
light: B1 light
notes: heterodimerized; also called He Ab K334_10E
B11: GpH7-A5/GpH7-B3 variant P271_12R/GpL16-k0 (antibody, human IgG1, kappa)
heavy 1: not shown
heavy 2: not shown
light: B1 light
notes: heterodimerized; also called He Ab P271_12R
B12: GpH7-A5/GpH7-B3 variant I336_10E/GpL16-k0 (antibody, human IgG1, kappa)
heavy 1: not shown
heavy 2: not shown
light: B1 light
notes: heterodimerized; also called He Ab I336_10E
B13: GpH7-A5/GpH7-B3 variant P271_07I/GpL16-k0 (antibody, human IgG1, kappa)
heavy 1: not shown
heavy 2: not shown
light: B1 light
notes: heterodimerized; also called He Ab P271_07I
B14: GpH7-A5/GpH7-B3 variant Q295_02A/GpL16-k0 (antibody, human IgG1, kappa)
heavy 1: not shown
heavy 2: not shown
light: B1 light
notes: heterodimerized; also called He Ab Q295_02A
B15: GpH7-A5/GpH7-B3 variant I336_01G/GpL16-k0 (antibody, human IgG1, kappa)
heavy 1: not shown
heavy 2: not shown
light: B1 light
notes: heterodimerized; also called He Ab I336_01G
B16: GpH7-A5/GpH7-B3 variant P271_11K/GpL16-k0 (antibody, human IgG1, kappa)
heavy 1: not shown
heavy 2: not shown
light: B1 light
notes: heterodimerized; also called He Ab P271_11K
B17: GpH7-A5/GpH7-B3 variant K326_14T/GpL16-k0 (antibody, human IgG1, kappa)
heavy 1: not shown
heavy 2: not shown
light: B1 light
notes: heterodimerized; also called He Ab K326_14T
B18: GpH7-A5/GpH7-B3 variant I336_03V/GpL16-k0 (antibody, human IgG1, kappa)
heavy 1: not shown
heavy 2: not shown
light: B1 light
notes: heterodimerized; also called He Ab I336_03V
B19: GpH7-A5/GpH7-B3 variant H268_05P/GpL16-k0 (antibody, human IgG1, kappa)
heavy 1: not shown
heavy 2: not shown
light: B1 light
notes: heterodimerized; also called He Ab H268_05P
B20: GpH7-A5/GpH7-B3 variant K326_12R/GpL16-k0 (antibody, human IgG1, kappa)
heavy 1: not shown
heavy 2: not shown
light: B1 light
notes: heterodimerized; also called He Ab K326_12R
B21: GpH7-A5/GpH7-B3 variant H268_12R/GpL16-k0 (antibody, human IgG1, kappa)
heavy 1: not shown
heavy 2: not shown
light: B1 light
notes: heterodimerized; also called He Ab H268_12R
B22: GpH7-A5/GpH7-B3 variant E333_14T/GpL16-k0 (antibody, human IgG1, kappa)
heavy 1: not shown
heavy 2: not shown
light: B1 light
notes: heterodimerized; also called He Ab E333_14T
B23: GpH7-A5/GpH7-B3 variant H268_02A/GpL16-k0 (antibody, human IgG1, kappa)
heavy 1: not shown
heavy 2: not shown
light: B1 light
notes: heterodimerized; also called He Ab H268_02A
B24: GpH7-A5/GpH7-B3 variant I336_06M/GpL16-k0 (antibody, human IgG1, kappa)
heavy 1: not shown
heavy 2: not shown
light: B1 light
notes: heterodimerized; also called He Ab I336_06M
B25: GpH7-A5/GpH7-B3 variant K334_12R/GpL16-k0 (antibody, human IgG1, kappa)
heavy 1: not shown
heavy 2: not shown
light: B1 light
notes: heterodimerized; also called He Ab K334_12R
B26: GpH7-A5/GpH7-B3 variant P271_02A/GpL16-k0 (antibody, human IgG1, kappa)
heavy 1: not shown
heavy 2: not shown
light: B1 light
notes: heterodimerized; also called He Ab P271_02A
B27: GpH7-A5/GpH7-B3 variant P238_08L/GpL16-k0 (antibody, human IgG1, kappa)
heavy 1: not shown
heavy 2: not shown
light: B1 light
notes: heterodimerized; also called He Ab P238_08L
B28: GpH7-A5/GpH7-B3 variant K326_15Y/GpL16-k0 (antibody, human IgG1, kappa)
heavy 1: not shown
heavy 2: not shown
light: B1 light
notes: heterodimerized; also called He Ab K326_15Y
B29: GpH7-A5/GpH7-B3 variant L328_19Q/GpL16-k0 (antibody, human IgG1, kappa)
heavy 1: not shown
heavy 2: not shown
light: B1 light
notes: heterodimerized; also called He Ab L328_19Q
B30: GpH7-A5/GpH7-B3 variant E333_16H/GpL16-k0 (antibody, human IgG1, kappa)
heavy 1: not shown
heavy 2: not shown
light: B1 light
notes: heterodimerized; also called He Ab E333_16H
B31: GpH7-A5/GpH7-B3 variant H268_07I/GpL16-k0 (antibody, human IgG1, kappa)
heavy 1: not shown
heavy 2: not shown
light: B1 light
notes: heterodimerized; also called He Ab H268_07I
B32: GpH7-A5/GpH7-B3 variant I336_02A/GpL16-k0 (antibody, human IgG1, kappa)
heavy 1: not shown
heavy 2: not shown
light: B1 light
notes: heterodimerized; also called He Ab I336_02A
B33: GpH7-A5/GpH7-B3 variant K326_16H/GpL16-k0 (antibody, human IgG1, kappa)
heavy 1: not shown
heavy 2: not shown
light: B1 light
notes: heterodimerized; also called He Ab K326_16H
B34: GpH7-A5/GpH7-B3 variant L234_07I/GpL16-k0 (antibody, human IgG1, kappa)
heavy 1: not shown
heavy 2: not shown
light: B1 light
notes: heterodimerized; also called He Ab L234_07I
B35: GpH7-A5/GpH7-B3 variant I332_12R/GpL16-k0 (antibody, human IgG1, kappa)
heavy 1: not shown
heavy 2: not shown
light: B1 light
notes: heterodimerized; also called He Ab I332_12R
B36: GpH7-A5/GpH7-B3 variant K326_18N/GpL16-k0 (antibody, human IgG1, kappa)
heavy 1: not shown
heavy 2: not shown
light: B1 light
notes: heterodimerized; also called He Ab K326_18N
B37: GpH7-A5/GpH7-B3 variant L234_04F/GpL16-k0 (antibody, human IgG1, kappa)
heavy 1: not shown
heavy 2: not shown
light: B1 light
notes: heterodimerized; also called He Ab L234_04F
B38: GpH7-A5/GpH7-B3 variant H268_08L/GpL16-k0 (antibody, human IgG1, kappa)
heavy 1: not shown
heavy 2: not shown
light: B1 light
notes: heterodimerized; also called He Ab H268_08L
B39: GpH7-A5/GpH7-B3 variant L328_20W/GpL16-k0 (antibody, human IgG1, kappa)
heavy 1: not shown
heavy 2: not shown
light: B1 light
notes: heterodimerized; also called He Ab L328_20W
B40: GpH7-A5/GpH7-B3 variant I336_04F/GpL16-k0 (antibody, human IgG1, kappa)
heavy 1: not shown
heavy 2: not shown
light: B1 light
notes: heterodimerized; also called He Ab I336_04F
B41: GpH7-A5/GpH7-B3 variant K334_20W/GpL16-k0 (antibody, human IgG1, kappa)
heavy 1: not shown
heavy 2: not shown
light: B1 light
notes: heterodimerized; also called He Ab K334_20W
B42: GpH7-A5/GpH7-B3 variant L234_06M/GpL16-k0 (antibody, human IgG1, kappa)
heavy 1: not shown
heavy 2: not shown
light: B1 light
notes: heterodimerized; also called He Ab L234_06M
B43: GpH7-A5/GpH7-B3 variant P238_06M/GpL16-k0 (antibody, human IgG1, kappa)
heavy 1: not shown
heavy 2: not shown
light: B1 light
notes: heterodimerized; also called He Ab P238_06M
B44: GpH7-A5/GpH7-B3 variant L328_10E/GpL16-k0 (antibody, human IgG1, kappa)
heavy 1: not shown
heavy 2: not shown
light: B1 light
notes: heterodimerized; also called He Ab L328_10E
B45: GpH7-A5/GpH7-B3 variant G236_02A/GpL16-k0 (antibody, human IgG1, kappa)
heavy 1: not shown
heavy 2: not shown
light: B1 light
notes: heterodimerized; also called He Ab G236_02A
B46: GpH7-A5/GpH7-B3 variant P238_10E/GpL16-k0 (antibody, human IgG1, kappa)
heavy 1: not shown
heavy 2: not shown
light: B1 light
notes: heterodimerized; also called He Ab P238_10E
B47: GpH7-A5/GpH7-B3 variant P271_04F/GpL16-k0 (antibody, human IgG1, kappa)
heavy 1: not shown
heavy 2: not shown
light: B1 light
notes: heterodimerized; also called He Ab P271_04F
B48: GpH7-A5/GpH7-B3 variant L234_10E/GpL16-k0 (antibody, human IgG1, kappa)
heavy 1: not shown
heavy 2: not shown
light: B1 light
notes: heterodimerized; also called He Ab L234_10E; GpH7-A5/GpH7-B16/GpL16-k0
B49: GpH7-A5/GpH7-B3 variant P238_15Y/GpL16-k0 (antibody, human IgG1, kappa)
heavy 1: not shown
heavy 2: not shown
light: B1 light
notes: heterodimerized; also called He Ab P238_15Y
B50: GpH7-A5/GpH7-B3 variant H268_20W/GpL16-k0 (antibody, human IgG1, kappa)
heavy 1: not shown
heavy 2: not shown
light: B1 light
notes: heterodimerized; also called He Ab H268_20W
B51: GpH7-A5/GpH7-B3 variant E333_13S/GpL16-k0 (antibody, human IgG1, kappa)
heavy 1: not shown
heavy 2: not shown
light: B1 light
notes: heterodimerized; also called He Ab E333_13S
B52: GpH7-A5/GpH7-B3 variant P271_20W/GpL16-k0 (antibody, human IgG1, kappa)
heavy 1: not shown
heavy 2: not shown
light: B1 light
notes: heterodimerized; also called He Ab P271_20W
B53: GpH7-A5/GpH7-B3 variant P271_03V/GpL16-k0 (antibody, human IgG1, kappa)
heavy 1: not shown
heavy 2: not shown
light: B1 light
notes: heterodimerized; also called He Ab P271_03V
B54: GpH7-A5/GpH7-B3 variant L234_03V/GpL16-k0 (antibody, human IgG1, kappa)
heavy 1: not shown
heavy 2: not shown
light: B1 light
notes: heterodimerized; also called He Ab L234_03V
B55: GpH7-A5/GpH7-B3 variant E333_15Y/GpL16-k0 (antibody, human IgG1, kappa)
heavy 1: not shown
heavy 2: not shown
light: B1 light
notes: heterodimerized; also called He Ab E333_15Y
B56: GpH7-A5/GpH7-B3 variant L328_14T/GpL16-k0 (antibody, human IgG1, kappa)
heavy 1: not shown
heavy 2: not shown
light: B1 light
notes: heterodimerized; also called He Ab L328_14T
B57: GpH7-A5/GpH7-B3 variant I336_18N/GpL16-k0 (antibody, human IgG1, kappa)
heavy 1: not shown
heavy 2: not shown
light: B1 light
notes: heterodimerized; also called He Ab I336_18N
B58: GpH7-A5/GpH7-B3 variant H268_14T/GpL16-k0 (antibody, human IgG1, kappa)
heavy 1: not shown
heavy 2: not shown
light: B1 light
notes: heterodimerized; also called He Ab H268_14T

Each binder was assayed against T1, FcγRIa (human, UniProt P12314 16-292) (assay: SPR; vs GpH7-A5/GpH7-B3/GpL16-k0=100).
T1 construct: extracellular domain; also called FcgRI; CD64
T1 sequence (P12314 16-292): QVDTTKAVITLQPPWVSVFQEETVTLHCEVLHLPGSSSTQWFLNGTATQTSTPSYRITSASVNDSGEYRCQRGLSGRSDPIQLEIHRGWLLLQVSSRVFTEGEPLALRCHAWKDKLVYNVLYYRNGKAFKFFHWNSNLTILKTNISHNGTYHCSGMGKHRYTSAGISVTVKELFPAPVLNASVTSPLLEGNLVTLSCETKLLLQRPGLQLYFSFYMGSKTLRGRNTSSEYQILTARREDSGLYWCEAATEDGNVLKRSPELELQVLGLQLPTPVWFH

He/Con_1a, 108 % of control:
B12
B24
B31
B57

He/Con_1a, 109 % of control:
B15
B19
B23

He/Con_1a, 107 % of control:
B38
B50

He/Con_1a, 103 % of control:
B16
B33
B34
B39
B51
B52

He/Con_1a, 112 % of control:
B58

He/Con_1a, 102 % of control:
B1
B3
B5
B11
B13
B22
B43
B46
B47
B53

He/Con_1a, 110 % of control:
B10

He/Con_1a, 101 % of control:
B6
B8
B27
B29
B30
B37
B44
B49
B55

He/Con_1a, 100 % of control:
B4
B9
B20
B35
B45
B48
B56

He/Con_1a, 105 % of control:
B2
B7
B18
B36

He/Con_1a, 106 % of control:
B21
B28
B32
B40
B41

He/Con_1a, 104 % of control:
B14
B17
B25
B26
B42
B54
